Patent US20170101470A1 (PROTHENA BIOSCIENCES, published 2017)

Assays:
Test in all cases: shotgun mutagenesis, immunodetection on BHK-S cells, 0.25 ug/mL, background-subtracted and normalised to WT, triplicate
[1] = target: T1, human MCAM S206A mutant clone on BHK-S cells (human) (UniProt P43121)
T1 sequence: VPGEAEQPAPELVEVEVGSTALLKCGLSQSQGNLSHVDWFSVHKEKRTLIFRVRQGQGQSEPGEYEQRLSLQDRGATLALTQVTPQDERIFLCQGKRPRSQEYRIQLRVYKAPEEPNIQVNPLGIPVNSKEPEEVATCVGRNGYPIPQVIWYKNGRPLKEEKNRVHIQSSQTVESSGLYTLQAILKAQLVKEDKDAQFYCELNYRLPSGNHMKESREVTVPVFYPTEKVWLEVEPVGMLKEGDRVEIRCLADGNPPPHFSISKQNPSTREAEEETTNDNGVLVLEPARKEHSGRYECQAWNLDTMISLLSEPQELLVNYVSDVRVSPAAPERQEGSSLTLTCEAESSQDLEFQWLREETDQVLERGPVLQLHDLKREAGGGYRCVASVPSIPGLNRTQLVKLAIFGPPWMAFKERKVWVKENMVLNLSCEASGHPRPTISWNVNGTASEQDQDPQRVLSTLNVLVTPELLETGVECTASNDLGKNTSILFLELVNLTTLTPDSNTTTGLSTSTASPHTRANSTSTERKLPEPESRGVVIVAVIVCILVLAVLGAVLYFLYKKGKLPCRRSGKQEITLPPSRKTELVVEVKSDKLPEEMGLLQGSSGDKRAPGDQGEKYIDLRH

[2] = target: T2, human MCAM L225A mutant clone on BHK-S cells (human) (UniProt P43121)
T2 sequence: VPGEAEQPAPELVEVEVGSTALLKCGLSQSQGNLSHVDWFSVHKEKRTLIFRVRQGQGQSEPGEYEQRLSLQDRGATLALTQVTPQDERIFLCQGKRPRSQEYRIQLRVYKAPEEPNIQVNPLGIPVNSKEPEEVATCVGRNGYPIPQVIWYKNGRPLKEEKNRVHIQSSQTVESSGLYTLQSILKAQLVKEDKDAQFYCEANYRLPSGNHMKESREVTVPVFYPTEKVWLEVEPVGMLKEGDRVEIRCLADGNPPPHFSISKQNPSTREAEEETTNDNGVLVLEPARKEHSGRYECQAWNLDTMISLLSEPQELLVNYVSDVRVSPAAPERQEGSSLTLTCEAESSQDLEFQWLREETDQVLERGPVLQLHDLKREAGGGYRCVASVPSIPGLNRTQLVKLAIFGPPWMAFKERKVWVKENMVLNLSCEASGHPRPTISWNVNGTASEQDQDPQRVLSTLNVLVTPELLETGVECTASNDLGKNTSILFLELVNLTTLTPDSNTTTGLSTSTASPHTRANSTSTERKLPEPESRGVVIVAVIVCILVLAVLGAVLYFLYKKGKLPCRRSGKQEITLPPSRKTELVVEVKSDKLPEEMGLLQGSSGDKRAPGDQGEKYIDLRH

[3] = target: T3, human MCAM S238A mutant clone on BHK-S cells (human) (UniProt P43121)
T3 sequence: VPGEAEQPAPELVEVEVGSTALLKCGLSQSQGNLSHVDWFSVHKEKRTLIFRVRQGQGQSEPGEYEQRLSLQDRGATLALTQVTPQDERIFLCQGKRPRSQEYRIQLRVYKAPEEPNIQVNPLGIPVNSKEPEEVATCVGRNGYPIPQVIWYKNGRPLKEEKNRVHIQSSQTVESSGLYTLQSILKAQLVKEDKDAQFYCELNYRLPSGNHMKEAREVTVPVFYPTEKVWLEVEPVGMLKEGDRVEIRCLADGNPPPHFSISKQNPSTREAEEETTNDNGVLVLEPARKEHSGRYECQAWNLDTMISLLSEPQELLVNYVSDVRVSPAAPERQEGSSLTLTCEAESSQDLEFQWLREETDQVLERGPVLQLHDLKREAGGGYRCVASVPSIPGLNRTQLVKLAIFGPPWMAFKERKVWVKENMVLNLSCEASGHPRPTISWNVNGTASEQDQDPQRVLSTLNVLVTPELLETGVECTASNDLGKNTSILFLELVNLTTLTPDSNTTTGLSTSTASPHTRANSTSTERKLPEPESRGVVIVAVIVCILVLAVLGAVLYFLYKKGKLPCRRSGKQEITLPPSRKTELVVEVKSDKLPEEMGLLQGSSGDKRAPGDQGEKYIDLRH

[4] = target: T4, human MCAM P145A mutant clone on BHK-S cells (human) (UniProt P43121)
T4 sequence: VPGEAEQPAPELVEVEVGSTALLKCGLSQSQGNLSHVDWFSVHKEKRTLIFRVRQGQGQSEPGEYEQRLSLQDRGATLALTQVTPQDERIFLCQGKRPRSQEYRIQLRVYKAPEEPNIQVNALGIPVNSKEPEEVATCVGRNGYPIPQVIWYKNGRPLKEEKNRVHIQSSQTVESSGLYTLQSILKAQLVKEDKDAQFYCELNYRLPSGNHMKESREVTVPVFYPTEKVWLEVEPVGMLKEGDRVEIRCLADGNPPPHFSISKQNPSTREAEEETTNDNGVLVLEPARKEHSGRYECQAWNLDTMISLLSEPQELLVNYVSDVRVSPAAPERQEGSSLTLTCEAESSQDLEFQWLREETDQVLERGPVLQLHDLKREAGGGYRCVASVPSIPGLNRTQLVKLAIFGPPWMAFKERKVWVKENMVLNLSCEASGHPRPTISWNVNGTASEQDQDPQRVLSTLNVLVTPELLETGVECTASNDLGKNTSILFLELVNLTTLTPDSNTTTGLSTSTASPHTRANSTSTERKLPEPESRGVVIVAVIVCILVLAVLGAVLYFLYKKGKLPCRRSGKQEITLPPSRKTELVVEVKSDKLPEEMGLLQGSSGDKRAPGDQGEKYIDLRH

B1: rat anti-human MCAM monoclonal antibody clone 2120.4.19 (antibody, V domains shown)
VH: QVQLKESGPGLVQPSQTLSLTCTVSGFSLTSNGVSWVRQPPGKGLEWIAAISSGGTTYYNSAFKSRLSISRNTSKSQVLLKMNSLQTEDTAMYFCARRYGYGWYFDFWGPGTMVTVSS
VL: DIRMTQSPSLLSASVGDRVTLNCKASQNIYNSLAWYQQKLGEGPKVLIPNANSLQTGIPSRFSGSGSGTDFTLTISSLQPEDFATYFCQQFYSGYTFGAGTKLELK
notes: also called m2120
mean reactivity (% of wild type MCAM) [1]: 17.9 % WT
mean reactivity (% of wild type MCAM) [2]: 23.8 % WT
mean reactivity (% of wild type MCAM) [3]: 28.9 % WT
mean reactivity (% of wild type MCAM) [4]: 26.3 % WT
